{
  "source": "patent US11466067B2",
  "about": "(priority 2019, dated 2022)",
  "molecules": {"B1": {"name": "IL-10 delivery construct: recombinant homodimeric fusion protein: N-terminal methionine, cholix386 domain, polyGlySer spacer, recombinant human IL-10 (protein)", "chain": "MVEEALNIFDECRSPCSLTPEPGKPIQSKLSIPSDVVLDEGVLYYSMTINDEQNDIKDEDKGESIITIGEFATVRATRHYVNQDAPFGVIHLDITTENGTKTYSYNRKEGEFAINWLVPIGEDSPASIKISVDELDQQRNIIEVPKLYSIDLDNQTLEQWKTQGNVSFSVTRPEHNIAISWPSVSYKAAQKEGSRHKRWAHWHTGLALCWLVPMDAIYNYITQQNCTLGDNWFGGSYETVAGTPKVITVKQGIEQKPVEQRIHFSKGNAMSALAAHRVCGVPLETLARSRKPRDLTDDLSCAYQAQNIVSLFVATRILFSHLDSVFTLNLDEQEPEVAERLSDLRRINENNPGMVTQVLTVARQIYNDYVTHHPGLTPEQTSAGAQAGGGGSGGGGSGGGGSPGQGTQSENSCTHFPGNLPNMLRDLRDAFSRVKTFFQMKDQLDNLLLKESLLEDFKGYLGCQALSEMIQFYLEEVMPQAENQDPDIKAHVNSLGENLKTLRLRLRRCHRFLPCENKSKAVEQVKNAFNKLQEKGIYKAMSEFDIFINYIEAYMTMKIRN", "modifications": "homodimer"}},
  "key": {"[1]": {"test_system": "cells of the Lamina propria", "experiment": "Cell targeting in the Lamina propria after intraluminal injection (immunofluorescence)", "assay_type": "in vivo, Wistar rats", "protocol": "Rats were anesthetized using inhaled isoflurane and euthanized by inhaled CO2.\nExperiments were initiated by making an approximately 4 cm abdominal incision to access the mid-jejunum region of the small intestine. After performing the incision, 50 μl of a prepared solution of the IL-10 delivery construct (typically at about 1 mg/mL) was injected into the intestinal lumen of an area devoid of foodstuffs through a 27-gauge needle using a 1 mL syringe. The mesentery adjacent to the site of injection was labeled with a marker and the intestine was returned to the abdominal cavity, with the incision being closed with clamps.\nAt specific times, the injected intestine was retrieved, surgically isolated and flushed with a 4° C. isotonic PBS. Washed, excised samples were fixed (4% paraformaldehyde in PBS) overnight at 4° C. before dehydration through graded series of ethanol/water solutions and overnight incubation in chloroform.\nDehydrated tissues were immersed in wax, sectioned, and mounted on poylysine slides and processed for antigen retrieval using sodium citrate. Afterward, sections were permeabilised with 0.2% Triton-X100 in PBS prior to thrice washing in PBS and blocking with 2% BSA+2% serum of the animal the secondary antibodies have been raised. Primary antibodies were diluted in 1% BSA, 0.1% Triton-X100 in PBS and incubated overnight at 4° C. in humidified air. Fluorescent secondary antibodies were diluted in 1% BSA, 0.1% Triton-X100 in PBS and incubated for 2 h at RT prior to processing for confocal microscopy. On occasion, an approximately 1 cm section of intestine at the injection site was collected for biochemical studies.\nProteins for specific cell types were examined by immuno-fluorescence using confocal microscopy. The IL-10 delivery construct components (the carrier, also referred to herein as “cholix,” and IL-10) were followed separately with either a polyclonal antibody (pAb) or monoclonal antibody (mAb) to IL-10 or a pAb or mAb to the carrier domain to allow co-localization with pAb or mAbs available (TABLE 46)."}, "[2]": {"test_system": "polarized gut epithelial cells", "experiment": "In vivo transcytosis across gut epithelium after intraluminal injection", "design": "species or system Wistar rats", "conditions": "luminal application, rat jejunum", "protocol": "In vivo transcytosis was tested using male Wistar rats. Male Wistar rats were housed 3-5 per cage with a 12/12 h light/dark cycle and were about 225-275 g (approximately 6-8 weeks old) when placed on study. Experiments were conducted during the light phase using a non-recovery protocol that uses continuous isoflurane anesthesia. A 4-5 cm midline abdominal incision that exposed mid-jejunum regions was conducted. Stock solutions at 3.86×10^−5M of delivery construct were prepared in phosphate buffered saline (PBS), with 50 μL (per 250 g rat) being administered by intraluminal injection (ILI) using a 29-gauge needle. The injection site mesentery was then marked with a permanent marker. At study termination, a 3-5 mm region that captured the marked intestine segment was isolated and processed for microscopic assessment. The in vivo experiments were performed in accordance with the U.K. Animals (Scientific Procedures) Act of 1986, the European Communities Council Directive of 1986 (86/609/EEC)."}, "[3]": {"test_system": "circulating cytokines, chemokines, growth factors", "assay_type": "in vivo, mice"}, "STAT3 phosphorylation": {"test_system": "STAT3 phosphorylation", "experiment": "In vivo pSTAT3 induction after intraluminal injection or oral gavage", "design": "species or system Balb/C mice", "conditions": "intraluminal injection, jejunum", "protocol": "In vivo studies in mice were performed where the biological activity of human IL-10 following transcytosis was assessed for its ability to stimulate the mouse IL-10 receptor and increase phosphorylation of STAT3 (pSTAT3) in cells within the Lamina propria.\nAn extensive amount of rhIL-10 (SEQ ID NO: 5) was trafficked through enterocytes. Additionally, there were a population of lymphocyte-like cells at the basolateral surface of enterocytes and within the Lamina propria that were pSTAT3 positive.\nEntire intestines of mice were isolated and processed as a “swiss role” and localization of pSTAT3 was detected by immunofluorescence confocal microscopy (FIG. 110)."}, "[4]": {"experiment": "Intracolonic spray in NHP: IL-1Ra, pSTAT3, construct, IL-10", "assay_type": "in vivo, cynomolgus monkeys", "excerpt": "This was achieved using a colonoscope with an associated spray nozzle. In this way, refined information for onset and duration of IL-1Ra induction could be obtained at specific local doses. […] The variability of pSTAT3/total STAT3 detected was consistent with tissue capture and stability challenges in this in vivo model. Measurement of tissue delivery construct levels had similar tissue capture and stability challenges, showing low and variable amounts in the tissue samples collected (FIG. 143). […] Since IL-10 can induce cells to produce more IL-10, we also looked for induced IL-10. […] It is important to note, due to the similarity of human and NHP IL-10, that ELISA values shown could also include hIL-10 that has somehow separated from the carrier domain of the delivery construct molecule. While this cannot be ruled out, no other data supports this as an outcome and it appears likely that the majority, if not all, tissue and serum IL-10 measured represents an NHP source."}},
  "data": [
    {"molecule": "B1", "values": [
      {"measurement": "time by which extensive amount reached the Lamina propria", "setting": "[1]; 1-minute pulse, intraluminal injection", "result": "≤ 15", "unit": "min"},
      {"measurement": "co-localization with LAMP1-positive lysosomes in enterocytes", "setting": "[1]; 15-minute time course", "result": "little or no co-localization"},
      {"measurement": "co-localization with CD3 antigen (T lymphocytes)", "setting": "[1]; Lamina propria", "result": "striking co-localizations"},
      {"measurement": "co-localization with CD19-positive cells (B-lymphocytes)", "setting": "[1]; Lamina propria", "result": "failed to co-localize"},
      {"measurement": "co-localization with CD34-positive cells (endothelia)", "setting": "[1]; Lamina propria", "result": "failed to co-localize"},
      {"measurement": "co-localization with CD11c antigen (dendritic cells)", "setting": "[1]; Lamina propria, rat jejunum", "result": "did not co-localize with CD11c antigen to any striking extent"},
      {"measurement": "earliest time of IL-10 payload transport into the Lamina propria", "setting": "[2]", "result": 1, "unit": "min"},
      {"measurement": "aggregation during freeze/thaw or at 1 week at 4 °C", "setting": "20 mg/mL, any condition tested", "result": "did not show any significant increases in aggregation"},
      {"measurement": "stability with respect to aggregation", "setting": "initial lyophilization feasibility study", "result": "more stable at pH 7.5 with sucrose and glycine"},
      {"measurement": "plasma IL-31", "setting": "[3]; 0.3 mg/kg", "result": "near-base line levels"},
      {"measurement": "plasma TGF-β relative to Vehicle", "setting": "[3]; 3.0 mg/kg", "result": "reduced"},
      {"measurement": "plasma IL-3", "setting": "[3]; 9.0 mg/kg", "result": "near-base line levels"},
      {"measurement": "plasma IL-4", "setting": "[3]; 9.0 mg/kg", "result": "near-base line levels"},
      {"measurement": "production of IL-12 and IL-17", "setting": "[3]; 9.0 mg/kg", "result": "prevented the production"},
      {"measurement": "plasma IL-28", "setting": "[3]; 3.0 and 9.0 mg/kg", "result": "near-base line levels"},
      {"measurement": "plasma MCSF", "setting": "[3]; highest dose (9.0 mg/kg)", "result": "reduced"},
      {"measurement": "oxazolone-induced changes in LIX, LIF, IP10", "setting": "[3]; mouse, in vivo", "result": "mitigated"},
      {"measurement": "oxazolone-induced increase in plasma GCSF/CSF3", "setting": "[3]; mouse, in vivo", "result": "attenuated"},
      {"measurement": "plasma IL-13 and IL-15 vs Vehicle", "setting": "[3]; mouse, in vivo", "result": "trend towards an IL-10 delivery construct-mediated decrease"},
      {"measurement": "phosphorylation of STAT3 in cells within the Lamina propria", "setting": "STAT3 phosphorylation", "result": "increased phosphorylation of STAT3"},
      {"measurement": "serum levels of the delivery construct", "setting": "[4]; cynomolgus monkey, in vivo", "result": "below the assay detection limit"},
      {"measurement": "tissue IL-10 levels", "setting": "[4]; within 15 min", "result": "dose-dependent and transient increases"}
    ]}
  ]
}
